Test [1] has as its target scavenger receptor CD36. Put plainly: flow cytometry on CD36-transfected CHO cells, rAv17 at 2.5 µg/ml; detected with an anti-cystatin mAb and a FITC secondary antibody; baseline 20%. (In general: In flow cytometry, cells or beads pass a laser one at a time.)
The target in test [2] is scavenger receptor CD36. Kind of test: flow cytometry on CD36-transfected CHO cells, rAv17 at 5 µg/ml; detected with an anti-cystatin mAb and a FITC secondary antibody; baseline 20%.

Turning to “recombinant Acanthocheilonema viteae cystatin (rAv17)”, the fluorescence positive cells with scavenger receptor CD36 [1] was found to be 71%; with scavenger receptor CD36 [2], 89%.

For the origin of these results see patent EP2056867B1.
